B1: CD20/CD3 BsMab with common VL (SEQ ID NO: 3) N93P (bispecific antibody, V domains shown)
VH 1: QVQLQQPGAELVKPGASVKMSCKASGYTFTSYNMHWVKQTPGRGLEWIGAIYPGNGDTSYNQKFKGKATLTADKSSSTAYMQLSSLRSEDSAVYYCARSTYYGGDWYFNVWGAGTTVTVSA
VH 2: EVQLQESGAELARPGASVKMSCKASGYTFTSYTMHWVKQRPGEGLEWIGYINPSSGYTKYNQKFKDKATLTADKSSSTAYMELSSLTSEDSAVYYCARWQDYDVYFDYWGEGTTLTVSS
VL: QIVLSQSPAILSASPGEKVTMTCRASSSVSYIHWFQQKPGSSPKPWIYATSNLASGVPVRFSGSGSGTSYSLTISRVEAEDAATYYCQQWTSPPPTFGGGTKLEIKR
B2: CD20/CD3 BsMab with common VL (SEQ ID NO: 3) N93G (bispecific antibody, V domains shown)
VH 1: QVQLQQPGAELVKPGASVKMSCKASGYTFTSYNMHWVKQTPGRGLEWIGAIYPGNGDTSYNQKFKGKATLTADKSSSTAYMQLSSLRSEDSAVYYCARSTYYGGDWYFNVWGAGTTVTVSA
VH 2: EVQLQESGAELARPGASVKMSCKASGYTFTSYTMHWVKQRPGEGLEWIGYINPSSGYTKYNQKFKDKATLTADKSSSTAYMELSSLTSEDSAVYYCARWQDYDVYFDYWGEGTTLTVSS
VL: QIVLSQSPAILSASPGEKVTMTCRASSSVSYIHWFQQKPGSSPKPWIYATSNLASGVPVRFSGSGSGTSYSLTISRVEAEDAATYYCQQWTSGPPTFGGGTKLEIKR
B3: CD20/CD3 BsMab with common VL (SEQ ID NO: 3) N93T (bispecific antibody, V domains shown)
VH 1: QVQLQQPGAELVKPGASVKMSCKASGYTFTSYNMHWVKQTPGRGLEWIGAIYPGNGDTSYNQKFKGKATLTADKSSSTAYMQLSSLRSEDSAVYYCARSTYYGGDWYFNVWGAGTTVTVSA
VH 2: EVQLQESGAELARPGASVKMSCKASGYTFTSYTMHWVKQRPGEGLEWIGYINPSSGYTKYNQKFKDKATLTADKSSSTAYMELSSLTSEDSAVYYCARWQDYDVYFDYWGEGTTLTVSS
VL: QIVLSQSPAILSASPGEKVTMTCRASSSVSYIHWFQQKPGSSPKPWIYATSNLASGVPVRFSGSGSGTSYSLTISRVEAEDAATYYCQQWTSTPPTFGGGTKLEIKR
B4: CD20/CD3 BsMab with common VL (SEQ ID NO: 3) N93Q (bispecific antibody, V domains shown)
VH 1: QVQLQQPGAELVKPGASVKMSCKASGYTFTSYNMHWVKQTPGRGLEWIGAIYPGNGDTSYNQKFKGKATLTADKSSSTAYMQLSSLRSEDSAVYYCARSTYYGGDWYFNVWGAGTTVTVSA
VH 2: EVQLQESGAELARPGASVKMSCKASGYTFTSYTMHWVKQRPGEGLEWIGYINPSSGYTKYNQKFKDKATLTADKSSSTAYMELSSLTSEDSAVYYCARWQDYDVYFDYWGEGTTLTVSS
VL: QIVLSQSPAILSASPGEKVTMTCRASSSVSYIHWFQQKPGSSPKPWIYATSNLASGVPVRFSGSGSGTSYSLTISRVEAEDAATYYCQQWTSQPPTFGGGTKLEIKR
B5: CD20/CD3 BsMab with common VL (SEQ ID NO: 3) N93V (bispecific antibody, V domains shown)
VH 1: QVQLQQPGAELVKPGASVKMSCKASGYTFTSYNMHWVKQTPGRGLEWIGAIYPGNGDTSYNQKFKGKATLTADKSSSTAYMQLSSLRSEDSAVYYCARSTYYGGDWYFNVWGAGTTVTVSA
VH 2: EVQLQESGAELARPGASVKMSCKASGYTFTSYTMHWVKQRPGEGLEWIGYINPSSGYTKYNQKFKDKATLTADKSSSTAYMELSSLTSEDSAVYYCARWQDYDVYFDYWGEGTTLTVSS
VL: QIVLSQSPAILSASPGEKVTMTCRASSSVSYIHWFQQKPGSSPKPWIYATSNLASGVPVRFSGSGSGTSYSLTISRVEAEDAATYYCQQWTSVPPTFGGGTKLEIKR

The results in this text go back to patent US20220169728A1 (AB THERAPEUTICS, published 2022).

In this assay the target is CD3 (Homo sapiens (Human), UniProt P07766 23-207; P04234 22-171; P09693 23-182). In words: cell-based or functional assay.
Chain of CD3 (P07766 23-207 limits assumed, chain 1 of 3): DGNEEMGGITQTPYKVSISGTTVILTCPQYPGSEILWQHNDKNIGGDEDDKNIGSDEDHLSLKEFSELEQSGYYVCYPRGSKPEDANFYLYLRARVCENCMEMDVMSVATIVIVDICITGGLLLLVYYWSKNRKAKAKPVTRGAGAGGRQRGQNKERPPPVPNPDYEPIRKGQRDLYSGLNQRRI
Chain of CD3 (P04234 22-171 limits assumed, chain 2 of 3): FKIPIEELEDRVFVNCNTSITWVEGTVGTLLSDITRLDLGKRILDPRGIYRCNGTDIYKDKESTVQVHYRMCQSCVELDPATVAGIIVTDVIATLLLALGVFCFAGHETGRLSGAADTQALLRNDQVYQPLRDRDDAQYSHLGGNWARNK
Chain of CD3 (P09693 23-182 limits assumed, chain 3 of 3): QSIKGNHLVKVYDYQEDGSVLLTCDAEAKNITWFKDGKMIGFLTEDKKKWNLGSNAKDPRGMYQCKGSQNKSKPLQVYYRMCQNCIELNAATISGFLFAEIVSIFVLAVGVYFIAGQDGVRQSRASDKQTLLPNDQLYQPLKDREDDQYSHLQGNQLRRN
As to B1, the “Function % 0.025 ug/ml (T cell activation, CD69 on Jurkat cells with Raji cells, against the unmutated baseline)” value stood at 9% and the “Function % 2 ug/ml (T cell activation, CD69 on Jurkat cells with Raji cells, against the unmutated baseline)” value amounted to 51%.
In the same order, the values of B2 are 15% and 21%.
In the same order, the values of B3 are 21% and 98%.
In the same order, the values of B4 are 10% and 62%.
Take B5: the “Function % 0.025 ug/ml (T cell activation, CD69 on Jurkat cells with Raji cells, against the unmutated baseline)” value was 33% and the “Function % 2 ug/ml (T cell activation, CD69 on Jurkat cells with Raji cells, against the unmutated baseline)” value was found to be 95%.
